Laboratory results from patent publication US20210087298A1.

Tests used:
[1] = target: HER2 (UniProt P04626); assay: apparent Kd, flow cytometry on SKOV3 cells
[2] = target: HER2 (UniProt P04626); assay: apparent Kd, flow cytometry on SKOV3 cells (n = 2)
[3] = target: HER2 (UniProt P04626); assay: apparent Kd, flow cytometry on SKBr3 cells
[4] = target: HER2 (UniProt P04626); assay: apparent Kd, flow cytometry on JIMT-1 cells

Q: What does the source list for “trast A158N-MB488: trastuzumab A158N mutant conjugated through Neu5NAz on Fd glycans (antibody)”?
A: Kd [1]: 3.3 nM; Kd [2]: 3.5 nM; Kd [3]: 2.6 nM; Kd [4]: 3.9 nM

Q: Which Kd [1] does the source give for trast K129N-MB488 (antibody) here?
A: Its Kd is 3.1 nM.

Q: What about the Kd [3] of the same substance?
A: Its Kd is 2.3 nM.

Q: And the Kd [4]?
A: The Kd was 3.2 nM.

Q: With “trast L189N-MB488: trastuzumab L189N mutant conjugated through Neu5NAz on Fd glycans (antibody)” as the substance, how does the Kd [1] read?
A: Its Kd is 3.4 nM.

Q: And the Kd [2]?
A: The Kd was 3.5 nM.

Q: Which Kd [3] does the source give for trast T191N-MB488 (antibody) here?
A: The Kd was 1.8 nM.
